T1: RBM39 RRM2 (UniProt Q14498 250-328)
T1 sequence: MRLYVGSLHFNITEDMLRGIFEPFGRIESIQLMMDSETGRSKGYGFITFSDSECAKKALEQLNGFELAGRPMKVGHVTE

T2: SF3b155 ULM peptide KSRWDETP
T2 construct: ULM (UHM ligand motif) of SF3b155 (SF3B1)
T2 peptide: KSRWDETP

T3: RBM39 RRM2 F259A (UniProt Q14498 250-328, F259A)
T3 sequence: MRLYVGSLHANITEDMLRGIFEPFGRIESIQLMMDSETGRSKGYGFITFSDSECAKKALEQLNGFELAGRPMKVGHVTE


Tests used:
RBM39 RRM2 [1] = biological target: T1, RBM39 RRM2; assay: NMR titration; ITC: RRM2/RRM12 in 10 mM Na phosphate pH 6.8, 50 mM NaCl, 2 mM DTT; RRM1 in the same at pH 5.5; 40 C (RRM12 with ssSL3 at 35 C); NMR 200 uM protein in the same; details: protein: recombinant; tags: His tag removed by thrombin
[2] = biological target: T2, SF3b155 ULM peptide KSRWDETP; assay: ITC; PEAQ-ITC (Malvern); Buffer G (sodium phosphate 10 mM pH 7.2, NaCl 50 mM, TCEP 0.5 mM); protein 300 μM in the syringe, ligand (peptide) 30 μM in the cell; details: both partners purified
RBM39 RRM2 [3] = biological target: T1, RBM39 RRM2; assay: ITC; n=1.18; ITC: RRM2/RRM12 in 10 mM Na phosphate pH 6.8, 50 mM NaCl, 2 mM DTT; RRM1 in the same at pH 5.5; 40 C (RRM12 with ssSL3 at 35 C); NMR 200 uM protein in the same; details: protein: recombinant; tags: His tag removed by thrombin
RBM39 RRM2 F259A = biological target: T3, RBM39 RRM2 F259A; assay: ITC; n=1.27; ITC: RRM2/RRM12 in 10 mM Na phosphate pH 6.8, 50 mM NaCl, 2 mM DTT; RRM1 in the same at pH 5.5; 40 C (RRM12 with ssSL3 at 35 C); NMR 200 uM protein in the same; details: protein: recombinant

Kd [2] | Binder | binding result (RBM39 RRM2 [1]) | other results
– | CCUCCCA (ssRNA) [mutBS1] | no binding | –
19 ± 5 µM | RBM39 RRM3 (domain or fragment, Construct limits not printed (cited paper); 418-530 is the customary RRM3/UHM construct, covering the annotated RRM3 445-508 and the C-terminus) VQPLATQCFQLSNMFNPQTEEEVGWDTEIKDDVIEECNKHGGVIHIYVDKNSAQGNVYVKCPSIAAAIAAVNALHGRWFAGKMITAAYVPLPTYHNLFPDSMTATQLLVPSRR | – | dH [2]: -20 kcal/mol; stoichiometry N [2]: 0.65
> 100 µM | RBM39 mRRM3 (domain or fragment, Construct limits not printed (cited paper); same conventional limits as wild-type RRM3) VQPLATQCFQLSNMFNPQTEEEVGWDTEIKDDVIEECNKHGGVIHIYVDKNSAQGNVYVKCPSIAAAIAAVNALHGAWAAGKMITAAYVPLPTYHNLFPDSMTATQLLVPSRR | – | –
– | CUCUUUG (ssRNA) [BS1] | binds | –
– | AGCUUUG (ssRNA) | – | Kd (RBM39 RRM2 [3]): 9 ± 2 µM; Kd (RBM39 RRM2 F259A): 41 ± 10 µM

From article PMC10477243, “Molecular basis of RNA-binding and autoregulation by the cancer-associated splicing factor RBM39” (Nature Communications, 2023)
